The target in the assay is Pgc ORF1, (His)6-tagged, 71-residue oligopeptide encoded by Drosophila polar granule component (pgc) ORF1 (Drosophila melanogaster). Briefly: SEC; refolded (His)6-tagged Pgc ORF1 on a size-exclusion column; two species migrating at 18 kDa and 36 kDa; dimer to monomers; column and buffer not stated. A general note: SEC sorts molecules by how far they enter the pores of the column.

For orientation: stoichiometry N means a count of units in the complex or per binding partner. On to “Pgc ORF1, (His)6-tagged, 71-residue oligopeptide encoded by Drosophila polar granule component (pgc) ORF1 (natural protein)”, for which the stoichiometry N was found to be 2.

Values taken from article PMC2423479.
